In patent US10450368 (DUKE UNIVERSITY, dated 2019):

T1: SSB (UniProt P05455 1-408)
T1 sequence: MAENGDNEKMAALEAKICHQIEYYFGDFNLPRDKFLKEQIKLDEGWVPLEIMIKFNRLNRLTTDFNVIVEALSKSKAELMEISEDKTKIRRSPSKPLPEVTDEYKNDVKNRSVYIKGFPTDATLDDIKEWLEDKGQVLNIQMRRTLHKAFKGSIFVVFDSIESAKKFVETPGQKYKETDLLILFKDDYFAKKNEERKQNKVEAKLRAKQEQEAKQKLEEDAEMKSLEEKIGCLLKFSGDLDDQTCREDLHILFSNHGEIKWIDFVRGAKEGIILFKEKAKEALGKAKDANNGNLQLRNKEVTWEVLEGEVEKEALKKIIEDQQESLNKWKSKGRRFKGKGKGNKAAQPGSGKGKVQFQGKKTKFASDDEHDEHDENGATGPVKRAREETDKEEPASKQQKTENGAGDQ

T2: Scl-70 (UniProt P11387 1-765)
T2 sequence: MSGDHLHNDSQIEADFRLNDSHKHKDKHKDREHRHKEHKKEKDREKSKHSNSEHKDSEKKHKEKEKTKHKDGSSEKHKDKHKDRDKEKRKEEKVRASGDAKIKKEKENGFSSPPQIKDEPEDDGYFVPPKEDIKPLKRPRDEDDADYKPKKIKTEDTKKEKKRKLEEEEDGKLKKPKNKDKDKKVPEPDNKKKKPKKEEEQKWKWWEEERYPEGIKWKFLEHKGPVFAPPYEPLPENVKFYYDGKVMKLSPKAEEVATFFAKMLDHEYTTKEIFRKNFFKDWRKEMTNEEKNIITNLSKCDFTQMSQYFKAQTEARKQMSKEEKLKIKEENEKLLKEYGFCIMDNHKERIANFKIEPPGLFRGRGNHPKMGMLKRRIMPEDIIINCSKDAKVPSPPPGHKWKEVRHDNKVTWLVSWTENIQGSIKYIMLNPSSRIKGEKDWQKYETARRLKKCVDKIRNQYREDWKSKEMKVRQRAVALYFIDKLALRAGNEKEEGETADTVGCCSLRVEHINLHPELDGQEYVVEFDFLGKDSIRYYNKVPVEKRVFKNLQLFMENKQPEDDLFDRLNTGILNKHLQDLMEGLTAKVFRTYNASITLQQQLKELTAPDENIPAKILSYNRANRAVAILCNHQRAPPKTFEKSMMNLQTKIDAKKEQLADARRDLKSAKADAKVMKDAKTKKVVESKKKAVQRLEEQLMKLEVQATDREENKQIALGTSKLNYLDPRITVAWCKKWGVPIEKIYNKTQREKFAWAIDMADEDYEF

T3: Jo-1 (UniProt P12081 1-509)
T3 sequence: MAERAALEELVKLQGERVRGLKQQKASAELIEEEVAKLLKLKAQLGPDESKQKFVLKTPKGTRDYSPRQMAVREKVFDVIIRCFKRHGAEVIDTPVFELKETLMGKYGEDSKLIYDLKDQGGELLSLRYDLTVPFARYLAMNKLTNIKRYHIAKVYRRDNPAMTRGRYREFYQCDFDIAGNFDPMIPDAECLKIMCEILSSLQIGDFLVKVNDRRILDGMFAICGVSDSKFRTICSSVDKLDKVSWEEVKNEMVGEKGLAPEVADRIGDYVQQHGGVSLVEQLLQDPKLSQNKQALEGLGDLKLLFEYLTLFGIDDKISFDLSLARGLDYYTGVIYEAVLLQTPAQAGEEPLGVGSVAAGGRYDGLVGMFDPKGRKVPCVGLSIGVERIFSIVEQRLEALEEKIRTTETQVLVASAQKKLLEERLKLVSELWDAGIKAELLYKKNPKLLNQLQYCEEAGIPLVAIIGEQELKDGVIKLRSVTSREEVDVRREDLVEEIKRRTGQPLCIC

T4: Centromere B (UniProt P07199 1-599)
T4 construct: also called Cent B
T4 sequence: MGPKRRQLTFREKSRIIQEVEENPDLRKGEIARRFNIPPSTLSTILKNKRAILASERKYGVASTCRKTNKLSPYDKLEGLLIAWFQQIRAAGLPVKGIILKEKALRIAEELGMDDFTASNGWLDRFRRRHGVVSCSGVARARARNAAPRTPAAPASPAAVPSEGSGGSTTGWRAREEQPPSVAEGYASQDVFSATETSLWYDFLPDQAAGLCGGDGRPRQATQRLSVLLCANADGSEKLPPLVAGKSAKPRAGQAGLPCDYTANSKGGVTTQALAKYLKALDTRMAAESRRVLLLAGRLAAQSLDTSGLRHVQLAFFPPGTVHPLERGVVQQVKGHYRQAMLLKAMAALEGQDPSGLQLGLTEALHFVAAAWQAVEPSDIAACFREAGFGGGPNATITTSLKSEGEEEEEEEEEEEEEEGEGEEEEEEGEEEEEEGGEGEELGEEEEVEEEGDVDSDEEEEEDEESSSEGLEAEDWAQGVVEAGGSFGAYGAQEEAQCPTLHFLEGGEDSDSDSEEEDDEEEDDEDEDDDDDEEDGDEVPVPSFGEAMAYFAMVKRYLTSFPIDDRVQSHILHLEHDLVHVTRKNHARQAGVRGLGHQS


Columns and labels:
SSA [1] = molecular target: T5, SSA; experiment: AtheNA, Ab 50 ug/ml
T5 construct: also called SSA (Ro)

SSB [2] = molecular target: T1, SSB; experiment: AtheNA, Ab 50 ug/ml
Sm (Smith antigen) = molecular target: T6, Sm (Smith antigen); experiment: AtheNA, Ab 50 ug/ml
T6 construct: Protein complex

RNP (ribonucleoprotein) = molecular target: T7, RNP (ribonucleoprotein); experiment: AtheNA, Ab 50 ug/ml
T7 construct: Protein-RNA complex

Scl-70 = molecular target: T2, Scl-70; experiment: AtheNA, Ab 50 ug/ml
Jo-1 = molecular target: T3, Jo-1; experiment: AtheNA, Ab 50 ug/ml
Centromere B = molecular target: T4, Centromere B; experiment: AtheNA, Ab 50 ug/ml
Histones [3] = molecular target: T8, Histones; experiment: AtheNA, Ab 50 ug/ml
T8 construct: Mixture of proteins

[4] = molecular target: CH505 TF loop D mutant M8 Env (pseudovirus) (HIV-1); experiment: cell-based or functional assay
SSA [5] = molecular target: T5, SSA; experiment: AtheNA, Ab 6.25 ug/ml
From the text: (§1) AtheNA Multi-Lyte ANA Plus Test System is one such assay. This is luminex-based assay, which is also used to screen patient sera.

SSB [6] = molecular target: T1, SSB; experiment: AtheNA, Ab 6.25 ug/ml
From the text: as §1

Histones [7] = molecular target: T8, Histones; experiment: AtheNA, Ab 6.25 ug/ml
From the text: as §1

CH505.TF mutant gp120 M6 = molecular target: T9, CH505.TF mutant gp120 M6 (HIV-1); experiment: direct-binding ELISA (OD450), panel 'CH505.TF gp120 M6'
T9 construct: domain: gp120

CH505.TF mutant gp120 M8 = molecular target: T10, CH505.TF mutant gp120 M8 (HIV-1); experiment: direct-binding ELISA (OD450), panel 'CH505.TF gp120 M8'
T10 construct: domain: gp120

| Binder | AtheNA signal (SSA [1]) | AtheNA signal (SSB [2]) | AtheNA signal (Sm (Smith antigen)) | AtheNA signal (RNP (ribonucleoprotein)) | AtheNA signal (Scl-70) | AtheNA signal (Jo-1) | AtheNA signal (Centromere B) | AtheNA signal (Histones [3]) | neutralization IC50, TZM-bl pseudovirus assay [4] [µg/mL] | AtheNA signal (SSA [5]) | AtheNA signal (SSB [6]) | AtheNA signal (Histones [7]) | EC50 (read off the curve) (CH505.TF mutant gp120 M6) [µg/mL] | EC50 (read off the curve) (CH505.TF mutant gp120 M8) [µg/mL] |
| --- | --- | --- | --- | --- | --- | --- | --- | --- | --- | --- | --- | --- | --- | --- |
| CH557 (antibody, V domains shown, also called CH235.12; CH557_4A/293i) VH: QVRLAQYGGGVKRLGATMTLSCVASGYTFNDYYIHWVRQAPGQGFELLGYIDPANGRPDYAGALRERLSFYRDKSMETLYMDLRSLRYDDTAMYYCVRNVGTAGSLLHYDHWGSGSPVIVSS VL: EIVLTQSPATLSASPGERVTLTCRASRSVRNNVAWYQHKGGQSPRLLIYDASTRAAGVPARFSGSASGTEFTLAISNLESEDFTVYFCLQYNNWWTFGQGTRVDIK | 6 relative luminescence units | 15 relative luminescence units | 8 relative luminescence units | 10 relative luminescence units | 6 relative luminescence units | 10 relative luminescence units | 46 relative luminescence units | 16 relative luminescence units |  |  |  |  |  |  |
| CH493 (antibody, V domains shown, also called CH235.9; DH493) VH: QVRLLQYGGGVKRPGASMTISCVASGYNFNDYYIHWVRQAPGQGLELMGWIDPSGGRTDYAGAFGDRVSMYRDKSMNTLYMDLRSLRSGDTAMYYCVRNVGTAGSLLHYDHWGLGVMVTVSS VL: EIVLTQSPATLSVSPGERVTLSCRASQSVRNNLAWYRQKRGQAPRLLIYGASTRATGIPARFSGSGSGTEFTLTISSMQSEDFAVYYCQQYNNWWTFGQGTKVEIK |  |  |  |  |  |  |  |  | 0.66 | 22 | 15 | 174 | ~0.5 | ~2 |
